Source: patent US20070269440A1, “Stimulators of osteoblastogenesis and applications of the same” (Board of Trustees of the University of Arkansas, priority 2006, published 2007)

How the values were obtained:
[1] = tested on: distracted tibia of 21-month-old C57BL6 mice; experiment: Distraction osteogenesis in aged mice, new bone in DO gap by single-beam radiography; type: in vivo, mouse; conditions: 21-month old mice, sTNF-RI 8.0 mg/kg s.c. every other day, 3-day latency, 14 days of distraction; control 27.3±8.4%, p<0.038
Source text: For initial radiography a Xerox Micro 50 closed system radiography unit (Xerox, Pasadena, Calif.) was used at 40 kilovolts (3 mA) for 20 seconds with Kodak X-OMAT film to radiograph the specimens. For quantitation, the radiographs and histology slides are video recorded by radio camera under low power (1.25× objective) microscopic magnification and transferred into a computer (Macintosh IIx Image 1.28c). The radiographs allow for quantitation of mineralized bone within the distraction gap. The measured distraction gap area was outlined from the outside corners of the two proximal and the two distal cortices forming a quadrilateral region of interest. The mineralized new bone area in the gap was determined by outlining the regions with radiodensity equivalent to or greater than the adjacent medullary bone. Mean pixel density of the defined distraction gap was measured using NIH Image on an arbitrary 256 degree scale. […] The percentage of new mineralized bone area within the distraction gap (% new bone) was calculated by dividing mineralized bone area/gap area. (6, 7).
Twenty-four 21-month-old C57BL6 mice underwent placement of an external fixator and osteotomy to the left tibia. The surgeries were completed over a four-day period. After surgeries there were eleven mice in the control group (one died during surgery) and twelve mice in the group to be treated with sTNF-RI. […]

[2] = tested on: distracted tibia of 21-month-old C57BL6 mice; experiment: Distraction osteogenesis in aged mice, new bone in DO gap by histology; type: in vivo, mouse; conditions: 21-month old mice, sTNF-RI 8.0 mg/kg s.c. every other day, 3-day latency, 14 days of distraction; control 31.2±12.4%, p<0.009
Source text: After radiography, the distracted tibiae were decalcified in 5% formic acid. The specimens were paraffin-embedded and cut into 5-7 micron longitudinal (coronal) sections on a microtome (Leitz 1512, Wetzlar, Germany) for staining (hematoxylin & eosin). The sections chosen for analysis were selected to represent a central or near central gap location. This was accomplished by choosing slides that contained all four full thickness cortices with intact marrow spaces on both the proximal and distal ends of the distraction gap. All organized osteoid/sinusoid columns were defined as new bone. We defined periosteal new bone as that outside of each cortex and endosteal new bone as that within the cortices. […] The distraction gap area was outlined from the outside corners of the two proximal and the two distal cortices forming a quadrilateral region of interest, and the area of that region (gap area) was recorded. Both the proximal and distal endosteal new bone matrix, which is easily distinguished from the central fibrous tissue at the PMF, was outlined and the area recorded (new bone area). The percentage of new bone within the distraction gap was calculated by dividing new bone area/gap area (8, 9-11). […]

B1: sTNF-RI: soluble TNF receptor Type I, a TNF blocker (TNF antagonist) (protein, UniProt P19438 30-211, looked up)
extracellular domain: LVPHLGDREKRDSVCPQGKYIHPQNNSICCTKCHKGTYLYNDCPGPGQDTDCRECESGSFTASENHLRHCLSCSKCRKEMGQVEISSCTVDRDTVCGCRKNQYRHYWSENLFQCFNCSLCLNGTVHLSCQEKQNTVCTCHAGFFLRENECVSCSNCKKSLECTKLCLPQIENVKGTEDSGTT
modifications: extracellular domain
[1]
  Mineralization of the DO gap, as measured from the radiographs (% of the distraction gap): 55.2±8.8 % SEM
[2]
  Mineralization of the DO gap, as measured histologically (% of the distraction gap): 76.1±7.5 % SEM
